T1: lambda Beta (Bet) (Bacteriophage lambda, UniProt P03698 P03698:1-261)
T1 sequence: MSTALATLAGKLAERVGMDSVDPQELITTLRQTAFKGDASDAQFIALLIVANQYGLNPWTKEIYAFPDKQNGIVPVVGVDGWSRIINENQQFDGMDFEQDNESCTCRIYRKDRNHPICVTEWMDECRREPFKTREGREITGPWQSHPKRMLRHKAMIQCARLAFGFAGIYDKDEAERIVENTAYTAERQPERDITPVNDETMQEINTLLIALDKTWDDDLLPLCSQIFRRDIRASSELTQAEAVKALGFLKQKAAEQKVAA

B1: galK 40-mer oligo (ssDNA)
DNA: CCGTATTGCAGCAGCTTTATCATCTGCCGCTGGACGGCGC
B2: galK 50-mer oligo (ssDNA)
DNA: CGGAACCGTATTGCAGCAGCTTTATCATCTGCCGCTGGACGGCGCACAAA
B3: galK 30-mer oligo (ssDNA)
DNA: TTGCAGCAGCTTTATCATCTGCCGCTGGAC
B4: galK 60-mer oligo (ssDNA)
DNA: GCGGTCGGAACCGTATTGCAGCAGCTTTATCATCTGCCGCTGGACGGCGCACAAATCGCG
B5: galK 20-mer oligo (ssDNA)
DNA: GCAGCTTTATCATCTGCCGC

The binders below were run against T1, lambda Beta (Bet) (assay: cell_activity; HME9, Exo and Gam co-expressed). Conditions: tags: expressed from pL of defective prophage in E. coli.
Description: Using the methods described in Examples 2, 3, 5, 10 and 11, lambda operon expression was heat-induced, cells were rendered electroporation-competent, and ssDNA oligonucleotides (200 ng each) were electroporated into E. coli HME9 strain cells. The electroporated ssDNA oligonucleotides included the 70-mer of SEQ ID NO: 11, a 60-mer constructed by removing the last 5 nucleotides from both the 5′ and 3′ ends of SEQ ID NO: 11, and a 50-mer, 40-mer, 30-mer, or 20-mer constructed by removing the last 10, 15, 20, or 25 nucleotides, respectively, from both the 5′ and 3′ ends of SEQ ID NO: 11. As in example 10, the ssDNA oligonucleotides used in this experiment were all designed to restore the galK+ gene upon successful recombination, thereby conferring upon the cell a Gal+ phenotype. Table 7 indicates the number of galK+ recombinants per viable cell, […].
With B1 the activity was 0.0004 recombinants per viable cell.
B2 was tested, and the activity was 0.0004 recombinants per viable cell.
B3 was tested, and the activity was 4.7e-05 recombinants per viable cell.
For B4, the activity was 0.0006 recombinants per viable cell.
With B5 the activity was 1e-06 recombinants per viable cell.

From patent US20030224521, “Enhanced homologous recombination mediated by lambda recombination proteins” (The Gov. of the USA Secretary of the Department of Health …, published 2003)
